Measured values published in KR20140138533A (dated 2014).

Target: T1, 재조합 인슐린 유사 성장인자-1 수용체 (IGF-1R, R&D system, 391-GR), extracellular domain Met1-Asn932 (human, UniProt P08069 31-932)
T1 construct: range 1-932; Bought recombinant protein; also called 재조합 IGF-1R; hIGF-1R
Test: SPR (BiaCore T200), MKJP2 captured on anti-human IgG Fc CM5 chip, IGF-1R injected at 0.78-12.5 nM

T1 sequence (P08069 31-932 limits assumed): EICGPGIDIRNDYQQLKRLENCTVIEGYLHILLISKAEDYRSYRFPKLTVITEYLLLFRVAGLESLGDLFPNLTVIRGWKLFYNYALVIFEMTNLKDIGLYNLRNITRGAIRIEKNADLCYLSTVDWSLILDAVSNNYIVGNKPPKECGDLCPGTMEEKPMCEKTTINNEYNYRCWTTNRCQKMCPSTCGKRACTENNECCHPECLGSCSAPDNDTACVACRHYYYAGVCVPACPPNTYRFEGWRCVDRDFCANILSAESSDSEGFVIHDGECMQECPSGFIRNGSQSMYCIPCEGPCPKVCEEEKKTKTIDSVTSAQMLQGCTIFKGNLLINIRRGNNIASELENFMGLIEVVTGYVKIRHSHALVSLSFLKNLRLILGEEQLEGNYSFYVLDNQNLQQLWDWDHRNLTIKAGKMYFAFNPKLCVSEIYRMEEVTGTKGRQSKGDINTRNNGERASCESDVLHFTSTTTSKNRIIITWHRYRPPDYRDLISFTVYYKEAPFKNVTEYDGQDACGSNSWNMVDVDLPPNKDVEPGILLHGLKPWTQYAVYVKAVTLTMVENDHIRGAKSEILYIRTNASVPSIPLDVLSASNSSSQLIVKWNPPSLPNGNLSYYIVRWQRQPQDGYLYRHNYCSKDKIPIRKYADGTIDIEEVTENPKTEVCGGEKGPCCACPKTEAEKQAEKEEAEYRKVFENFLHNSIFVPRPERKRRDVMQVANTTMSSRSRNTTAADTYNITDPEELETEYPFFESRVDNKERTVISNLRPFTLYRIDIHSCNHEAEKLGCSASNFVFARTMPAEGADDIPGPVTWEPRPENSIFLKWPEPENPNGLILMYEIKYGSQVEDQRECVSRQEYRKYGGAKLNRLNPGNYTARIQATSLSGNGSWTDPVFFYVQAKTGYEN

- Kd: 0.173 nM
B1: 인간 단일클론항체 MKJP2 (전체 IgG) (antibody, V domains shown)
VH: EVQLLESGGGLAQPGGSLRLSCAASGFTFSGYAMSWVRQAPGKGLEWVSAISSDGGSTYYADSVKGRFTISRDNSKNTLYLQMNSLRAEDTAVYYCARDPWFSRWTAFDYWGQGTLVTVSS
VL: QSVLTQPPSASGTPGQRVTISCSGSSSNIGNNAVNWYQQLPGTAPKLLIYSNSKRPSGVPDRFSGSKSGTSASLAISGLRSEDEADYYCGTWDYSLSGYVFGGGTKLTVLG
notes: Variable regions were cloned into the vectors E-A12H-ID (heavy) and pEA12L-ID (light); also called MKJP2 항체; 항 IGF-1R 항체 MKJP2
